Experimental data as given in publication PMC10661694, “Architecture and regulation of a GDNF-GFRα1 synaptic adhesion assembly” (Nature Communications, 2023).

T1: full length, GPI-anchored rat GFRα1 (mGFRα1^FL; HA-rGFRα1^1-468) (rat) (UniProt Q62997)
T1 sequence (chain, GPI-anchor): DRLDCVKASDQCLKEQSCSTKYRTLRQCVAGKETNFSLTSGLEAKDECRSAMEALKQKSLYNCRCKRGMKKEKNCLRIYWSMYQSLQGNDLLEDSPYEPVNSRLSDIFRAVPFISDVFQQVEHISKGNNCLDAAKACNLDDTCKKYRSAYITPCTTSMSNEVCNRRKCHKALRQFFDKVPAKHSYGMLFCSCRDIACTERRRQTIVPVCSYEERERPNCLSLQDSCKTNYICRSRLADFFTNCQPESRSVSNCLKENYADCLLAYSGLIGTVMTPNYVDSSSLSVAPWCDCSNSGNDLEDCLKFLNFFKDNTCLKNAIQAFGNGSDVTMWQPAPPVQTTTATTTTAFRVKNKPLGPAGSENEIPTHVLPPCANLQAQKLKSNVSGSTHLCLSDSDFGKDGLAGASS

T2: human GDNF structured region, residues 110-211 (hGDNF^mat) (human, UniProt P39905 110-211)
T2 chain: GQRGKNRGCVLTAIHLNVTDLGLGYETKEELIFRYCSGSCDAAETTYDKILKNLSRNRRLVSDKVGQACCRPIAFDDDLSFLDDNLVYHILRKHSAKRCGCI

B1: rat GDNF (rGDNF) (ligand)
chain: SPDKQAAALPRRERNRQAAAASPENSRGKGRRGQRGKNRGCVLTAIHLNVTDLGLGYETKEELIFRYCSGSCEAAETMYDKILKNLSRSRRLTSDKVGQACCRPVAFDDDLSFLDDSLVYHILRKHSAKRCGCI
B2: hGFRα1^D1-CT-K251E (protein)
chain: DRLDCVKASDQCLKEQSCSTKYRTLRQCVAGKETNFSLASGLEAKDECRSAMEALKQKSLYNCRCKRGMKKEKNCLRIYWSMYQSLQGNDLLEDSPYEPVNSRLSDIFRVVPFISDVFQQVEHIPKGNNCLDAAKACNLDDICKKYRSAYITPCTTSVSNDVCNRRKCHKALRQFFDKVPAKHSYGMLFCSCRDIACTERRRQTIVPVCSYEEREKPNCLNLQDSCETNYICRSRLADFFTNCQPESRSVSSCLKENYADCLLAYSGLIGTVMTPNYIDSSSLSVAPWCDCSNSGNDLEECLKFLNFFKDNTCLKNAIQAFGNGSDVTVWQPAFPVQTTTATTTTALRVKNKPLGPAGSENEIPTHVLPPCANLQAQKLKSNVSGNTHLCISNGNYEKEG
B3: hGFRα1^D1-CT-L287E (protein)
chain: DRLDCVKASDQCLKEQSCSTKYRTLRQCVAGKETNFSLASGLEAKDECRSAMEALKQKSLYNCRCKRGMKKEKNCLRIYWSMYQSLQGNDLLEDSPYEPVNSRLSDIFRVVPFISDVFQQVEHIPKGNNCLDAAKACNLDDICKKYRSAYITPCTTSVSNDVCNRRKCHKALRQFFDKVPAKHSYGMLFCSCRDIACTERRRQTIVPVCSYEEREKPNCLNLQDSCKTNYICRSRLADFFTNCQPESRSVSSCLKENYADCLEAYSGLIGTVMTPNYIDSSSLSVAPWCDCSNSGNDLEECLKFLNFFKDNTCLKNAIQAFGNGSDVTVWQPAFPVQTTTATTTTALRVKNKPLGPAGSENEIPTHVLPPCANLQAQKLKSNVSGNTHLCISNGNYEKEG
B4: hGFRα1^D1-CT-K251E L287E (protein)
chain: DRLDCVKASDQCLKEQSCSTKYRTLRQCVAGKETNFSLASGLEAKDECRSAMEALKQKSLYNCRCKRGMKKEKNCLRIYWSMYQSLQGNDLLEDSPYEPVNSRLSDIFRVVPFISDVFQQVEHIPKGNNCLDAAKACNLDDICKKYRSAYITPCTTSVSNDVCNRRKCHKALRQFFDKVPAKHSYGMLFCSCRDIACTERRRQTIVPVCSYEEREKPNCLNLQDSCETNYICRSRLADFFTNCQPESRSVSSCLKENYADCLEAYSGLIGTVMTPNYIDSSSLSVAPWCDCSNSGNDLEECLKFLNFFKDNTCLKNAIQAFGNGSDVTVWQPAFPVQTTTATTTTALRVKNKPLGPAGSENEIPTHVLPPCANLQAQKLKSNVSGNTHLCISNGNYEKEG
B5: human GFRα1 residues 25-424 (hGFRα1^D1-CT) (domain or fragment)
chain: DRLDCVKASDQCLKEQSCSTKYRTLRQCVAGKETNFSLASGLEAKDECRSAMEALKQKSLYNCRCKRGMKKEKNCLRIYWSMYQSLQGNDLLEDSPYEPVNSRLSDIFRVVPFISDVFQQVEHIPKGNNCLDAAKACNLDDICKKYRSAYITPCTTSVSNDVCNRRKCHKALRQFFDKVPAKHSYGMLFCSCRDIACTERRRQTIVPVCSYEEREKPNCLNLQDSCKTNYICRSRLADFFTNCQPESRSVSSCLKENYADCLLAYSGLIGTVMTPNYIDSSSLSVAPWCDCSNSGNDLEECLKFLNFFKDNTCLKNAIQAFGNGSDVTVWQPAFPVQTTTATTTTALRVKNKPLGPAGSENEIPTHVLPPCANLQAQKLKSNVSGNTHLCISNGNYEKEG
B6: human GFRα1 residues 150-424 (hGFRα1^D2-CT) (domain or fragment)
chain: KGNNCLDAAKACNLDDICKKYRSAYITPCTTSVSNDVCNRRKCHKALRQFFDKVPAKHSYGMLFCSCRDIACTERRRQTIVPVCSYEEREKPNCLNLQDSCKTNYICRSRLADFFTNCQPESRSVSSCLKENYADCLLAYSGLIGTVMTPNYIDSSSLSVAPWCDCSNSGNDLEECLKFLNFFKDNTCLKNAIQAFGNGSDVTVWQPAFPVQTTTATTTTALRVKNKPLGPAGSENEIPTHVLPPCANLQAQKLKSNVSGNTHLCISNGNYEKEG
B7: zebrafish GFRα1 residues 144-368 (zGFRα1^D2-D3+) (domain or fragment, UniProt Q98TT9 144-368, looked up)
chain: EPALAKENNCLNAAKACNLNDTCKKYRSAYISPCTSRVSTAEVCNKRKCHKALRQFFDKVPPKHSYGMLYCSCPLGDQSACSERRRQTIVPACSYEDKERPNCLTLQVSCKTNYICRSRLADFFTNCQPEPLSLSGCLKENYADCLLSYSGLIGTVMTPNYLRSPKISVSPFCDCSSSGNSKEECDRFTEFFTDNACLRNAIQAFGNGTDVSVWHPMPPVQTTTS
notes: GFRα1a, zebrafish, residues 144-368 (D2-D3 and part of the C-tail, lacking D1); also called zGFRα1^144-368; source: Expi293F, secreted; purified (Ni-NTA, SEC) or co-expressed with zGDNF^mat and co-purified; not shown: His6, C-terminal, kept
B8: zebrafish GFRα1 residues 20-353 (zGFRα1^D1-D3, lacking the GPI-anchor); ordered portion in the crystal zGFRα1^D2-D3 (domain or fragment, UniProt Q98TT9 144-353, looked up)
chain: EPALAKENNCLNAAKACNLNDTCKKYRSAYISPCTSRVSTAEVCNKRKCHKALRQFFDKVPPKHSYGMLYCSCPLGDQSACSERRRQTIVPACSYEDKERPNCLTLQVSCKTNYICRSRLADFFTNCQPEPLSLSGCLKENYADCLLSYSGLIGTVMTPNYLRSPKISVSPFCDCSSSGNSKEECDRFTEFFTDNACLRNAIQAFGNGTD
modifications: N-linked glycans (8 resolved for the 10 zGFRα1 protomers)
notes: GFRα1a, zebrafish, residues 20-353; In the crystal only D2-D3 is present (D1 clipped)
B9: zebrafish GDNF residues 134-235 (mature form, zGDNF^mat), crystallised in complex with zGFRα1^D1-D3 (ligand, UniProt Q98TU0 134-235, looked up)
chain: RVKGQGRGCLLKEIHLNVTDLDLGYRTKEELIFRYCSGPCHDAETNYDKILNNLTHNKKLDKDTPSRTCCRPIAFDDDISFLDDSLEYHTLKKHSAKKCACV
modifications: N-linked glycan at the N-glycosylation site of all zGDNF protomers
notes: GDNF, zebrafish, residues 134-235 (mature form); the methods give 135-235 for zGDNF^mat; Covalent dimer
B10: zebrafish GDNF mature structured region, residues 135-235 (zGDNF^mat) (ligand, UniProt Q98TU0 135-235, looked up)
chain: VKGQGRGCLLKEIHLNVTDLDLGYRTKEELIFRYCSGPCHDAETNYDKILNNLTHNKKLDKDTPSRTCCRPIAFDDDISFLDDSLEYHTLKKHSAKKCACV
notes: GDNF, zebrafish, mature structured region, residues 135-235; The co-expressed form is called untagged; the methods describe no separate untagged construct, so both are kept as one molecule; also called untagged zGDNF^mat; soluble zGDNF^mat; source: Expi293F, secreted; not shown: His6, N-terminal, cleaved

Columns and labels:
[1] = molecular target: T1, full length, GPI-anchored rat GFRα1 (mGFRα1^FL; HA-rGFRα1^1-468) (rat)
[2] = molecular target: T2, human GDNF structured region, residues …; assay: SPR
[3] = molecular target: the molecule itself; assay: negative-stain electron microscopy; zGDNF^mat-zGFRα1^D2-D3+ cross-linked with 0.1% glutaraldehyde, SEC (Superose 6 Increase) in 20 mM HEPES pH 7.5, 130 mM NaCl, ~700 kDa fraction imaged; reconstruction at 30 Å
[4] = molecular target: the molecule itself; assay: crystal structure; zGDNF^mat-zGFRα1^D1-D3 complex at 2.5 mg/ml in 20 mM Tris pH 7.0, 100 mM NaCl, 1 mM CaCl2; sitting drop, 22 °C; D1 clipped during crystallisation; 2.65 Å, P2_1, ten copies in the asymmetric unit
[5] = molecular target: B7; assay: native gel or EMSA; blue native PAGE (3-12% Bis-Tris) of Ni2+-NTA purified co-expressed zGDNF^mat-zGFRα1 samples, 2 mg/ml, 10 mM HEPES pH 7.5, 130 mM NaCl, 1 mM CaCl2; time points; conditions: both partners purified

Binder | Kd [2] [nM] | other results
B1 | – | HEK293 cell adhesion assay: proportion of cell clusters of mGFRα1^FL-expressing cells after rat GDNF (200 ng/ml) [1]: 5 fold
B2 | 48 | –
B3 | 33 | –
B4 | 91 | –
B5 | 32 | –
B6 | 71 | –
B7 | – | binding result [3]: binds
B8 | – | stoichiometry N [4]: 5 protomers in each ring
B9 | – | stoichiometry N [4]: 2 protomers in each covalent dimer
B10 | – | stoichiometry N [5]: 1 zGDNF^mat protomers per zGFRα1 (10:10)
